Results taken from US20230365648A1 (BITTERROOT BIO, published 2023).

Columns and labels:
Test in all cases: BLI (Octet R8), construct captured on anti-human Fc sensor, CD47 in solution
rhCD47-his (human CD47) = biological target: T1, rhCD47-his (human CD47) (human, UniProt Q08722 19-139)
T1 construct: Soluble analyte in the Octet assay; not shown: his tag

mouse CD47 = biological target: T2, mouse CD47 (mouse, UniProt Q61735 19-140, limits assumed)
T2 construct: also called mouse CD47 protein
T2 sequence (looked up): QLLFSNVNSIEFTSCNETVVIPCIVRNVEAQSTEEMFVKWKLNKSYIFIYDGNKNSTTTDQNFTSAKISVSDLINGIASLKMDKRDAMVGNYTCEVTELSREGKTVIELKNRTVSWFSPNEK

rat CD47 = biological target: T3, rat CD47 (rat, UniProt P97829 19-140, limits assumed)
T3 construct: also called rat CD47 protein
T3 sequence (looked up): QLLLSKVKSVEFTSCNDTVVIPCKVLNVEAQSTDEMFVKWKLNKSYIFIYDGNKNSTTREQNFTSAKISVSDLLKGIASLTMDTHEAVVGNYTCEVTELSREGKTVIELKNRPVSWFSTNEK

Measured: binding result

T1 sequence (Q08722 19-139 limits assumed): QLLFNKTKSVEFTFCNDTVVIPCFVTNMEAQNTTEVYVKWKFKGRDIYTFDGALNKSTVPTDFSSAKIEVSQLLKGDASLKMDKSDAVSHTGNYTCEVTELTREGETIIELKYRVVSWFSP

B1: Construct 50 (SIRPα fusion polypeptide SEQ ID NO: 10 construct without the YTE mutation, i.e. with the wild type IgG4 Fc domain) (Fc fusion)
chain: EEELQIIQPDKSVLVAAGETATLRCTITSLFPVGPIQWFRGAGPGRVLIYNQRQGPFPRVTTVSDTTKRNNMDFSIRIGNITPADAGTYYCIKFRKGSPDDVEFKSGAGTELSVRAKPSAAAPPCPPCPAPEFLGGPSVFLFPPKPKDTLMISRTPEVTCVVVDVSQEDPEVQFNWYVDGVEVHNAKTKPREEQFNSTYRVVSVLTVLHQDWLNGKEYKCKVSNKGLPSSIEKTISKAKGQPREPQVYTLPPSQEEMTKNQVSLTCLVKGFYPSDIAVEWESNGQPENNYKTTPPVLDSDGSFFLYSRLTVDKSRWQEGNVFSCSVMHEALHNHYTQKSLSLSLGK
notes: It is described as the same construct as Construct 67 without the YTE mutation
binds: all assays above

B2: Construct 67 (SIRPα fusion polypeptide of SEQ ID NO: 10, SIRPα domain of SEQ ID NO: 2 and IgG4 Fc domain with a YTE mutation) (Fc fusion)
chain: EEELQIIQPDKSVLVAAGETATLRCTITSLFPVGPIQWFRGAGPGRVLIYNQRQGPFPRVTTVSDTTKRNNMDFSIRIGNITPADAGTYYCIKFRKGSPDDVEFKSGAGTELSVRAKPSAAAPPCPPCPAPEFLGGPSVFLFPPKPKDTLYITREPEVTCVVVDVSQEDPEVQFNWYVDGVEVHNAKTKPREEQFNSTYRVVSVLTVLHQDWLNGKEYKCKVSNKGLPSSIEKTISKAKGQPREPQVYTLPPSQEEMTKNQVSLTCLVKGFYPSDIAVEWESNGQPENNYKTTPPVLDSDGSFFLYSRLTVDKSRWQEGNVFSCSVMHEALHNHYTQKSLSLSLGK
binds: all assays above
